Values quoted from earlier work in patent US12128089B2 (Slayback Pharma LLC, priority 2022, dated 2024).
Read-outs that look alike come from different tables or passages of the source.

Assays:
[1] = neutral aqueous solution
[2] = not given; remark: listed apart in the source
[3] = not given; remark: listed apart in the source
[4] = dilute aqueous solutions, random coil conformation

Substance: Glucagon
- Solubility in aqueous solutions (pH less than 3 or greater than 9): > 10000 µg/mL
- Solubility in aqueous solutions (pH range of 4 to 8): < 100 µg/mL
- Precipitation after preparation [1]: precipitates within an hour of preparation
- Onset of action post injection [2]: 5 to 20 min
- Half-life in plasma [3]: 3 to 6 min
- α-helix at the C-terminal end [4]: 15%
